Residue numbers refer to the chain shown, from its start. Names and notes keep the numbering of the source.
Experiments:
Experiment in all cases: purified protein
[1] = system: CC(C)(COP(=O)(O)OP(=O)(O)OC[C@H]1O[C@@H](n2cnc3c(N)ncnc32)[C@H](O)[C@@H]1OP(=O)(O)O)[C@@H](O)C(=O)NCCC(=O)NCCSC(=O)c1cc(O)c2ccccc2c1O; conditions: 50 mM K+HEPES pH 7.5, 1 mM DTNB, 25 °C
[2] = system: CC(C)(COP(=O)(O)OP(=O)(O)OC[C@H]1O[C@@H](n2cnc3c(N)ncnc32)[C@H](O)[C@@H]1OP(=O)(O)O)[C@@H](O)C(=O)NCCC(=O)NCCSC(=O)c1ccccc1; conditions: 50 mM K+HEPES pH 7.5, 1 mM DTNB, 25 °C
[3] = system: CCCCCCCCCCCC(=O)SCCNC(=O)CCNC(=O)[C@H](O)C(C)(C)COP(=O)(O)OP(=O)(O)OC[C@H]1O[C@@H](n2cnc3c(N)ncnc32)[C@H](O)[C@@H]1OP(=O)(O)O; conditions: 50 mM K+HEPES pH 7.5, 1 mM DTNB, 25 °C
[4] = substrate: CC(C(=O)O)C(=O)SCCNC(=O)CCNC(=O)[C@H](O)C(C)(C)COP(=O)(O)OP(=O)(O)OC[C@H]1O[C@@H](n2cnc3c(N)ncnc32)[C@H](O)[C@@H]1OP(=O)(O)O; conditions: 50 mM K+HEPES pH 7.5, 1 mM DTNB, 25 °C
[5] = substrate: CC(C)(COP(=O)(O)OP(=O)(O)OC[C@H]1O[C@@H](n2cnc3c(N)ncnc32)[C@H](O)[C@@H]1OP(=O)(O)O)[C@@H](O)C(=O)NCCC(=O)NCCSC(=O)/C=C/c1ccc(O)cc1; conditions: 50 mM K+HEPES pH 7.5, 1 mM DTNB, 25 °C
[6] = substrate: CC(C)(COP(=O)(O)OP(=O)(O)OC[C@H]1O[C@@H](n2cnc3c(N)ncnc32)[C@H](O)[C@@H]1OP(=O)(O)O)[C@@H](O)C(=O)NCCC(=O)NCCSC(=O)c1cc(O)c2ccccc2c1O; conditions: 50 mM K+HEPES pH 7.5, 1 mM DTNB, 25 °C; remark: listed apart in the source
[7] = substrate: CC(C)(COP(=O)(O)OP(=O)(O)OC[C@H]1O[C@@H](n2cnc3c(N)ncnc32)[C@H](O)[C@@H]1OP(=O)(O)O)[C@@H](O)C(=O)NCCC(=O)NCCSC(=O)c1ccc(O)cc1; conditions: 50 mM K+HEPES pH 7.5, 25 °C
[8] = substrate: CC(C)(COP(=O)(O)OP(=O)(O)OC[C@H]1O[C@@H](n2cnc3c(N)ncnc32)[C@H](O)[C@@H]1OP(=O)(O)O)[C@@H](O)C(=O)NCCC(=O)NCCSC(=O)c1ccccc1; conditions: 50 mM K+HEPES pH 7.5, 1 mM DTNB, 25 °C; remark: listed apart in the source
[9] = substrate: CC(C)=CC(=O)SCCNC(=O)CCNC(=O)[C@H](O)C(C)(C)COP(=O)(O)OP(=O)(O)OC[C@H]1O[C@@H](n2cnc3c(N)ncnc32)[C@H](O)[C@@H]1OP(=O)(O)O; conditions: 50 mM K+HEPES pH 7.5, 1 mM DTNB, 25 °C
[10] = substrate: CCC(=O)SCCNC(=O)CCNC(=O)[C@H](O)C(C)(C)COP(=O)(O)OP(=O)(O)OC[C@H]1O[C@@H](n2cnc3c(N)ncnc32)[C@H](O)[C@@H]1OP(=O)(O)O; conditions: 50 mM K+HEPES pH 7.5, 1 mM DTNB, 25 °C
[11] = substrate: CCCCCC(=O)SCCNC(=O)CCNC(=O)[C@H](O)C(C)(C)COP(=O)(O)OP(=O)(O)OC[C@H]1O[C@@H](n2cnc3c(N)ncnc32)[C@H](O)[C@@H]1OP(=O)(O)O; conditions: 50 mM K+HEPES pH 7.5, 1 mM DTNB, 25 °C
[12] = substrate: CCCCCCCC/C=C\CCCCCCCC(=O)SCCNC(=O)CCNC(=O)[C@H](O)C(C)(C)COP(=O)(O)OP(=O)(O)OC[C@H]1O[C@@H](n2cnc3c(N)ncnc32)[C@H](O)[C@@H]1OP(=O)(O)O; conditions: 50 mM K+HEPES pH 7.5, 1 mM DTNB, 25 °C
[13] = substrate: CCCCCCCCCCCC(=O)SCCNC(=O)CCNC(=O)[C@H](O)C(C)(C)COP(=O)(O)OP(=O)(O)OC[C@H]1O[C@@H](n2cnc3c(N)ncnc32)[C@H](O)[C@@H]1OP(=O)(O)O; conditions: 50 mM K+HEPES pH 7.5, 1 mM DTNB, 25 °C; remark: listed apart in the source
[14] = substrate: CCCCCCCCCCCCCC(=O)SCCNC(=O)CCNC(=O)[C@H](O)C(C)(C)COP(=O)(O)OP(=O)(O)OC[C@H]1O[C@@H](n2cnc3c(N)ncnc32)[C@H](O)[C@@H]1OP(=O)(O)O; conditions: 50 mM K+HEPES pH 7.5, 1 mM DTNB, 25 °C
[15] = substrate: CCCCCCCCCCCCCCCC(=O)SCCNC(=O)CCNC(=O)[C@H](O)C(C)(C)COP(=O)(O)OP(=O)(O)OC[C@H]1O[C@@H](n2cnc3c(N)ncnc32)[C@H](O)[C@@H]1OP(=O)(O)O; conditions: 50 mM K+HEPES pH 7.5, 1 mM DTNB, 25 °C
[16] = substrate: CCCCCCCCCCCC(=O)SCCNC(=O)CCNC(=O)[C@H](O)C(C)(C)COP(=O)(O)OP(=O)(O)OC[C@H]1O[C@@H](n2cnc3c(N)ncnc32)[C@H](O)[C@@H]1OP(=O)(O)O; assay type: biochemical, Escherichia coli; conditions: 50 mM K+HEPES pH 7.5, 1 mM DTNB, 25 °C

Q: How did the Km [1] turn out when YbdB (Escherichia coli K-12; M68V) was run?
A: 5.9 ± 0.6 µM

Q: What about the kcat [1] of the same molecule?
A: 0.16 ± 0.02 s⁻¹

Q: What about the kcat/Km [1] of the same molecule?
A: 27000 M⁻¹ s⁻¹

Q: What about the Km [2] of the same molecule?
A: 24 ± 2 µM

Q: And the kcat [2]?
A: 1.8 ± 0.1 s⁻¹

Q: And the kcat/Km [2]?
A: 75000 M⁻¹ s⁻¹

Q: What about the Km [3] of the same molecule?
A: 10.4 ± 0.3 µM

Q: And the kcat [3]?
A: 0.046 ± 0.004 s⁻¹

Q: And the kcat/Km [3]?
A: 4500 M⁻¹ s⁻¹

B1: YdiI (Escherichia coli K-12) (protein)
chain: MIWKRKITLEALNAMGEGNMVGFLDIRFEHIGDDTLEATMPVDSRTKQPFGLLHGGASVVLAESIGSVAGYLCTEGEQKVVGLEINANHVRSAREGRVRGVCKPLHLGSRHQVWQIEIFDEKGRLCCSSRLTTAIL
Q: With B1 as the molecule, how does the Km [4] read?
A: 115 ± 7 µM

Q: What about the kcat [4] of the same molecule?
A: 0.67 ± 0.03 s⁻¹

Q: What about the kcat/Km [4] of the same molecule?
A: 5800 M⁻¹ s⁻¹

Q: What about the Km [5] of the same molecule?
A: 30 ± 2 µM

Q: What about the kcat [5] of the same molecule?
A: 8.4 ± 0.2 s⁻¹

Q: And the kcat/Km [5]?
A: 280000 M⁻¹ s⁻¹

Q: And the Km [6]?
A: 8 ± 1 µM

Q: What about the kcat [6] of the same molecule?
A: 1.6 ± 0.1 s⁻¹

Q: What about the kcat/Km [6] of the same molecule?
A: 200000 M⁻¹ s⁻¹

Q: And the Km [7]?
A: 9 ± 1 µM

Q: And the kcat [7]?
A: 5.2 ± 0.2 s⁻¹

Q: What about the kcat/Km [7] of the same molecule?
A: 580000 M⁻¹ s⁻¹

Q: What about the Km [8] of the same molecule?
A: 25 ± 3 µM

Q: And the kcat [8]?
A: 17.7 ± 0.7 s⁻¹

Q: And the kcat/Km [8]?
A: 710000 M⁻¹ s⁻¹

Q: What about the Km [9] of the same molecule?
A: 69.4 ± 0.4 µM

Q: What about the kcat [9] of the same molecule?
A: 0.5 ± 0.02 s⁻¹

Q: And the kcat/Km [9]?
A: 7300 M⁻¹ s⁻¹

Q: What about the Km [10] of the same molecule?
A: 120 ± 10 µM

Q: What about the kcat [10] of the same molecule?
A: 0.21 ± 0.01 s⁻¹

Q: And the kcat/Km [10]?
A: 1700 M⁻¹ s⁻¹

Q: What about the Km [11] of the same molecule?
A: 21 ± 1 µM

Q: What about the kcat [11] of the same molecule?
A: 0.3 ± 0.01 s⁻¹

Q: What about the kcat/Km [11] of the same molecule?
A: 14000 M⁻¹ s⁻¹

Q: And the Km [12]?
A: 1.3 ± 0.1 µM

Q: And the kcat [12]?
A: 0.12 ± 0.01 s⁻¹

Q: What about the kcat/Km [12] of the same molecule?
A: 92000 M⁻¹ s⁻¹

Q: What about the Km [13] of the same molecule?
A: 2.2 ± 0.1 µM

Q: What about the kcat [13] of the same molecule?
A: 0.74 ± 0.01 s⁻¹

Q: What about the kcat/Km [13] of the same molecule?
A: 330000 M⁻¹ s⁻¹

Q: And the Km [14]?
A: 1.5 ± 0.2 µM

Q: And the kcat [14]?
A: 0.62 ± 0.01 s⁻¹

Q: What about the kcat/Km [14] of the same molecule?
A: 410000 M⁻¹ s⁻¹

Q: And the Km [15]?
A: 1.9 ± 0.1 µM

Q: What about the kcat [15] of the same molecule?
A: 0.58 ± 0.01 s⁻¹

Q: What about the kcat/Km [15] of the same molecule?
A: 300000 M⁻¹ s⁻¹

B2: YbdB (Escherichia coli K-12) (protein)
chain: MIWKRHLTLDELNATSDNTMVAHLGIVYTRLGDDVLEAEMPVDTRTHQPFGLLHGGASAALAETLGSMAGFMMTRDGQCVVGTELNATHHRPVSEGKVRGVCQPLHLGRQNQSWEIVVFDEQGRRCCTCRLGTAVLG
Q: With B2 as the molecule, how does the Km [5] read?
A: 10 ± 1 µM

Q: What about the kcat [5] of the same molecule?
A: 0.82 ± 0.02 s⁻¹

Q: And the kcat/Km [5]?
A: 82000 M⁻¹ s⁻¹

Q: And the Km [6]?
A: 17 ± 1 µM

Q: And the kcat [6]?
A: 0.0093 ± 0.0002 s⁻¹

Q: And the kcat/Km [6]?
A: 550 M⁻¹ s⁻¹

Q: What about the Km [12] of the same molecule?
A: 13 ± 2 µM

Q: And the kcat [12]?
A: 0.03 ± 0.002 s⁻¹

Q: And the kcat/Km [12]?
A: 2300 M⁻¹ s⁻¹

Q: And the Km [14]?
A: 11 ± 1 µM

Q: And the kcat [14]?
A: 0.078 ± 0.003 s⁻¹

Q: What about the kcat/Km [14] of the same molecule?
A: 7100 M⁻¹ s⁻¹

B3: YdiI (Escherichia coli K-12; V68M) (protein)
chain: B1 chain with V68M
Q: With B3 as the molecule, how does the Km [16] read?
A: 28 ± 2 µM

Q: What about the kcat [16] of the same molecule?
A: 0.77 ± 0.03 s⁻¹

Q: And the kcat/Km [16]?
A: 28000 M⁻¹ s⁻¹

Reference: paper PMC4116150
